# In patent publication US20150098945A1 (Daiichi Sankyo, published 2015):
# T1: human ROBO2 (pCI-hROBO2-transfected HEK293 cells) (human)
# T1 chain: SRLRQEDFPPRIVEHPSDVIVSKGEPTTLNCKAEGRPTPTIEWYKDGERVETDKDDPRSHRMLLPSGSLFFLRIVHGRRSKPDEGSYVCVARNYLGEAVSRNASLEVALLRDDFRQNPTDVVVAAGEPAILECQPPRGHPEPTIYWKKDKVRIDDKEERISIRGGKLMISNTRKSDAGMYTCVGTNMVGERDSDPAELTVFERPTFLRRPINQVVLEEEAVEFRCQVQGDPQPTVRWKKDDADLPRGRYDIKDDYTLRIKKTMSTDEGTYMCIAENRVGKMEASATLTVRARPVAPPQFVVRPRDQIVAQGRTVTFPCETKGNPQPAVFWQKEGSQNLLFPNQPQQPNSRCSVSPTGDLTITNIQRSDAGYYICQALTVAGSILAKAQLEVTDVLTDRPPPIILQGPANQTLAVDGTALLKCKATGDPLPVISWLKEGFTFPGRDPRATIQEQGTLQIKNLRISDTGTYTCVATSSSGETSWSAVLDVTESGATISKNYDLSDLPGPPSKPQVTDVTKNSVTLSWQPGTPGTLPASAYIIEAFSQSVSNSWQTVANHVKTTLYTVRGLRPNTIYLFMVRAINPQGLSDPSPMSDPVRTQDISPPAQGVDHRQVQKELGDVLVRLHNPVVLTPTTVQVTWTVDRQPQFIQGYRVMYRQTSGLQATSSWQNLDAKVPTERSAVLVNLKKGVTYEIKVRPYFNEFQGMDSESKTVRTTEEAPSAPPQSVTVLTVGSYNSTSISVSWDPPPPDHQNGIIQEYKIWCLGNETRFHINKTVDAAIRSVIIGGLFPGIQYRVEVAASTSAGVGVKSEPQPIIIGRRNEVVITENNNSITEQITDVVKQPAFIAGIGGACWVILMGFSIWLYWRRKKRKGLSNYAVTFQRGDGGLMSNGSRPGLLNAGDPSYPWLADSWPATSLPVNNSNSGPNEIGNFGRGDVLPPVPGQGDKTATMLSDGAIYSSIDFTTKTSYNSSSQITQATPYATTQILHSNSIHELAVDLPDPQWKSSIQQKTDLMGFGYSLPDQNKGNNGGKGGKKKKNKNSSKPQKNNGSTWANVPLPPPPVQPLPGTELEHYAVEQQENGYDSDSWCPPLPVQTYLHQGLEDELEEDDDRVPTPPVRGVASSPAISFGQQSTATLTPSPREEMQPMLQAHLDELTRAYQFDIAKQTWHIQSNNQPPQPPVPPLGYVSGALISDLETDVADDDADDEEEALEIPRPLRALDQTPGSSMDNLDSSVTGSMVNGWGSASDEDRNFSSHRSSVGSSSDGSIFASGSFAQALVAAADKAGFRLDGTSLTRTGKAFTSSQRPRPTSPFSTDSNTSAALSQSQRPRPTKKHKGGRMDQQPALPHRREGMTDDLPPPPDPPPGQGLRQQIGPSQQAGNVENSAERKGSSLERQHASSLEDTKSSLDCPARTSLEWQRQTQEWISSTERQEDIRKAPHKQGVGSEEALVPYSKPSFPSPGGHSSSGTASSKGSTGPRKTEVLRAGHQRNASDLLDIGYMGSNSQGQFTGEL
# Biological target: T1, human ROBO2 (pCI-hROBO2-transfected …)
# Test: flow cytometry on transfected HEK293 cells
binder,measurement,value
"humanized MAb1 antibody H-1140 (antibody, human IgG2, kappa, V domains shown, Human IgG2 / kappa constant regions; also called hMAb1-H2-type heavy chain + hMAb1-L1-type light chain) VH: EVQLVESGGGLVQPGGSLRLSCAASGFTFSTYAMSWVRQAPGKGLEWVATISQGGTYTYYPDSVKGRFTISRDNAKNTLYLQMNSLRAEDTAVYYCARLIYYDYLDYWGQGTLVTVSS VL: DIVMTQSPLSLPVTLGEPASISCRSSQSLENSNGNTYLNWYLQKPGQSPQLLIYRVSNRFSGVPDRFSGSGSGTDFTLKISRVEAEDVGVYYCLQVTHVPWTFGPGTKVDIKR",binding result,no binding (tested: 10 µg/mL (method of 4)-4-2))
